# Assay results from PMC8608799, “The main oxidative inactivation pathway of the plant hormone auxin” (Nature Communications, 2021).
# B1: AtDAO1 (Arabidopsis thaliana) (protein)
# chain: MGELNGVIIPTIDLEEVSDKILNQKIREASERWGCFRVINHGVSLSLMAEMKKTVIDLFQRPYEVKVRNTDVLLGSGYRAPNEINPYYEALGLYDMASPHAVNTFCDQLEASADQREIMVKYAKAINGLATDLARKLAESYGLVETDFFKEWPSQFRINKYHFKPETVGKLGVQLHTDSGFLTILQDDENVGGLEAMDNSSGTFFPIDPLPNTLAINLGDMATIWSNGRLCNVKHRVQCKEATMRYSIASFLLGPMDTDLEPPSEFVDAEHPRLYKPISHEGVRNIRMTKKLHDGEALKLITHAGLDK
# notes: full-length ORF in pCold I, N-terminal His tag kept, E. coli BL21, TALON purified
# Tests used:
# [1] = substrate: O=C(O)CC[C@H](NC(=O)Cc1c[nH]c2ccccc12)C(=O)O; assay: HPLC of oxidised product, Michaelis-Menten; type: biochemical, Arabidopsis thaliana; settings: 0.5 mM 2-oxoglutarate, 2 μM Fe(II), 5 mM ascorbate, 50 mM potassium phosphate pH 7.2, 30 °C
# [2] = substrate: O=C(O)C[C@H](NC(=O)Cc1c[nH]c2ccccc12)C(=O)O; assay: HPLC of oxidised product, Michaelis-Menten; type: biochemical, Arabidopsis thaliana; settings: 0.5 mM 2-oxoglutarate, 2 μM Fe(II), 5 mM ascorbate, 50 mM potassium phosphate pH 7.2, 30 °C
protein,measurement,setting,value
B1,Km,[1],9.4 µM
same,Km,[2],13.5 µM
